What was measured:
[1] = target: RelSt3 relaxase encoded by ICESt3 from Streptococcus thermophilus (Streptococcus thermophilus (ICESt3)); assay: cross-linking; 5 ug RelSt3 in 20 uL with 0.001 to 0.1% glutaraldehyde, 15 min at room temperature, stopped with glycine; 10% SDS-PAGE, Coomassie
[2] = target: RelSt3 relaxase encoded by ICESt3 from Streptococcus thermophilus (Streptococcus thermophilus (ICESt3)); assay: AUC; sedimentation velocity at 1 and 5 uM in 20 mM Tris-HCl pH 7.5, 500 mM NaCl, 25 °C, 42,000 rpm, absorbance at 280 nm; c(s) analysis with Sedfit
[3] = target: RelSt3 relaxase encoded by ICESt3 from Streptococcus thermophilus (Streptococcus thermophilus (ICESt3)); assay: SEC; calibrated Superdex 200 gel filtration, final step of purification; single elution peak at 72.4 mL, apparent molecular weight about 88 kDa against a predicted 48.5 kDa

Measured: stoichiometry N

RelSt3 relaxase encoded by ICESt3 from Streptococcus thermophilus (enzyme)
2: all assays above

From paper PMC6499999
